Experimental data: US10689452 (UNIVERSIT T STUTTGART, dated 2020)

Experiments:
[1] = biological target: T1, mouse TNFR2-Fc fusion protein (mouse, UniProt P25119 23-258); experiment: ELISA on coated receptor-Fc fusion proteins, one antibody concentration (not given on the sheet)
T1 construct: range 23-258; not shown: Fc part from vector pSecTagL1-Fc
T1 sequence (looked up): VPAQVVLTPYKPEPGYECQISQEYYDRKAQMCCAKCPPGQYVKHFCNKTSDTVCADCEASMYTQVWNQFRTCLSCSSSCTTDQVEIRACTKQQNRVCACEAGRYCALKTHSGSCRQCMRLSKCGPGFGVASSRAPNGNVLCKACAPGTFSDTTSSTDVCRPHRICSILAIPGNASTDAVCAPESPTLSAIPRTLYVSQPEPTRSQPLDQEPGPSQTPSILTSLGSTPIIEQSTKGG
Experimental: (§1) FIG. 12. Species selectivity of scFv13.7 derivatives. […] Presented are mean and SD of two individual experiments.
(§2) Microtiter plates were coated with 100 µl of the indicated protein (1 µg/ml in PBS, see Table 3.3) and incubated at 4° C. over night. The residual binding sites were blocked with 2% MPBS (skim milk in PBS, 200 µl per well) at room temperature for 2 hours and subsequently washed twice with PBS. 100 µl of the samples diluted in 2% MPBS were incubated at room temperature for 1 hour prior to the last incubation step with 100 µl of the HRP conjugated detection antibodies in 2% MPBS. In the case of competition experiments, both analyzed protein samples were prepared individually (either titrated or diluted to a single concentration) and mixed before they were applied to the plate. Bound protein was detected with 100 µl TMB substrate solution, the HRP-reaction was stopped by the addition of 50 µl 1 M H2SO4 and the absorption at the wavelength of 450 nm was measured using the Infinite microtiter plate reader (TECAN, Maennedorf, Switzerland). Between each incubation step and in advance of the detection, the plates were washed three times with PBST and twice with PBS.

[2] = biological target: T2, human TNFR2-Fc fusion protein (human, UniProt P20333 23-257); experiment: as above
T2 construct: whole entry named; also called huTNFR2
T2 sequence (looked up): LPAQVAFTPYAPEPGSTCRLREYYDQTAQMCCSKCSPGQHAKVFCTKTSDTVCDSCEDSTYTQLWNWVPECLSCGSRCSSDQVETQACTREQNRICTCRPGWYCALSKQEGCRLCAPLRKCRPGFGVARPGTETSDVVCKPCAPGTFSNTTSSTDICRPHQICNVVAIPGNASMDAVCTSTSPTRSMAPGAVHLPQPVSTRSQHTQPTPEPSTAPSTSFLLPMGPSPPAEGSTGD
Experimental: as §1, §2

[3] = biological target: T3, mouse TNFR1-Fc fusion protein (mouse, UniProt P25118 30-212); experiment: as above
T3 construct: range 30-212; also called moR1; not shown: Fc part from vector pSecTagL1-Fc
T3 sequence (looked up): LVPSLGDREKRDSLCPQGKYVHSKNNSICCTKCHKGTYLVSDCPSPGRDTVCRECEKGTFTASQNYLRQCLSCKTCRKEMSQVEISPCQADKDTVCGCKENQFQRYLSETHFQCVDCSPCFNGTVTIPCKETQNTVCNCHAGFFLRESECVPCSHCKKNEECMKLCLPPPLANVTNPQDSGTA
Experimental: as §1, §2

[4] = biological target: T4, human TNFR1-Fc fusion protein (human, UniProt P19438 29-211); experiment: QCM, human TNFR1-Fc, moderate receptor density (86 Hz), biphasic fit, KD1 (low-affinity part)
T4 construct: range 29-211; Made in stably transfected HEK293 cells; coated on ELISA plates or immobilised on QCM chips; also called huTNFR1-Fc; human TNFR-Fc; not shown: Fc part from vector pSecTagL1-Fc
T4 sequence (looked up): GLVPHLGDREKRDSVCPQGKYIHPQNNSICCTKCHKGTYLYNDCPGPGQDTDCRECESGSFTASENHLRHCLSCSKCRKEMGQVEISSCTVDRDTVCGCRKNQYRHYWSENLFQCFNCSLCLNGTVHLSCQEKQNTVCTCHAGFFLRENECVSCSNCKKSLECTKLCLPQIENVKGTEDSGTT
Experimental: Real-time binding dynamics in protein-protein interactions were determined by quartz crystal microbalance measurements (A-100 C-Fast or Cell-200 C-Fast, Attana, Stockholm, Sweden). One of the binding partners (ligand, e.g. TNFR1-Fc) was chemically immobilized on a carboxyl sensor chip according to the manufacturer's protocol at different densities (nearly 200 Hz in the case of saturating conditions to confirm previously published results and 50-100 Hz, in particular at about 50 Hz, to establish conditions of lower receptor density, better resembling the situation on the cellular surface). Binding experiments were performed with samples (analyte) diluted in PBST (PBS, 0.1% Tween 20) at pH 7.4 with a flow rate of 25 µl/min at 37° C. The chip was regenerated with 25 µl 5 mM NaOH or 20 mM glycine, pH 2.0. Every third measurement, an injection of running buffer was measured which was subtracted from the binding curve. Data were collected using the software provided by Attana for the particular device and analyzed by Attaché Office Evaluation software (Attana, Stockholm, Sweden) and TraceDrawe (ridgview instruments, Vange, Sweden).

[5] = biological target: T5, human TNFR1 on cells (HT1080, HeLa, Kym-1) (human, UniProt P19438 30-455); experiment: cell-based or functional assay
T5 sequence (looked up): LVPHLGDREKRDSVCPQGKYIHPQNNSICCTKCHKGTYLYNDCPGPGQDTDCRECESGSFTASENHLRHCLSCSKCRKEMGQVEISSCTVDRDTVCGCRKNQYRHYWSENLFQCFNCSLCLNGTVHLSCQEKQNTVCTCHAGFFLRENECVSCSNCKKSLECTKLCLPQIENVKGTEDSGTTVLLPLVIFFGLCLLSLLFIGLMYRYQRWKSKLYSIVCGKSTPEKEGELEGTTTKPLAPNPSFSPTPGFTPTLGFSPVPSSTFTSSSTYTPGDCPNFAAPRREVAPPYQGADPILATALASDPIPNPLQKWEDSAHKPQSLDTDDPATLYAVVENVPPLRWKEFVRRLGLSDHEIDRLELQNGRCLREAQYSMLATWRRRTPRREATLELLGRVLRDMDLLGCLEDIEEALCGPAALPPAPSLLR

- binding result [1]: no binding
- binding result [2]: no binding
- binding result [3]: no binding
- Kd [4]: 78 nM
- Factor, IC50 LT (ATROSAB against H398) [5]: 12 fold
- Factor, IC50 TNF (ATROSAB against H398) [5]: 10 fold
- IC50, LT [nM] (inhibition of IL-8 release from HT1080 cells induced by LTα) [5]: 7.6 nM
- IC50, TNF [nM] (inhibition of IL-8 release from HT1080 cells induced by 0.1 nM TNF) [5]: 42 nM
B1: ATROSAB (antibody, IgG1, V domains shown)
VH: QVQLVQSGAEVKKPGSSVKVSCKASGYTFTDFYINWVRQAPGQGLEWIGEIYPYSGHAYYNEKFKARVTITADKSTSTAYMELSSLRSEDTAVYYCARWDFLDYWGQGTTVTVSS
VL: DIVMTQSPLSLPVTPGEPASISCRSSQSLLHSNGNTYLHWYLQKPGQSPQLLIYTVSNRFSGVPDRFSGSGSGTDFTLKISRVEAEDVGVYYCSQSTHVPYTFGGGTKVEIKR
notes: Humanized full-length IgG1 with a modified Fc region deficient in mediating effector functions (made according to WO2012035141); also called full length IgG ATROSAB
